For assay [1], the target named is T1, NPNA8 peptide, biotinylated (Plasmodium falciparum, biotin (position not given)).
T1 chain: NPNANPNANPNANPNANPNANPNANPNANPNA
In words: BLI; 2:1 binding model. In general terms: Biolayer interferometry detects binding as a change in optical thickness at a sensor tip.

The target of assay [2] is T1, NPNA8 peptide, biotinylated. In words: BLI; 2:1 binding model.

Data on one molecule can be found in article PMC10192352 (2023).

The term koff denotes the first-order rate constant of dissociation. A low value points to a long-lived complex. Usually Kd stands for the constant that tells how readily two partners part at equilibrium. Read a high Kd as weaker binding.

B1: L9 Fab (Fab, V domains shown)
VH: QVKLVESGGGVVQPGRSLRLSCEASGFIFSTYGMHWVRQAPGKGLEWVAVIWFDGSNIYYADSVKGRFTISRDNSKNTVFMQMDSLRAEDTAVYYCHRNFYDGSGPFDYWGQGTLVTVSS
VL: DIQMTQSPSTLSASVGDRVTITCRASQFISRWLAWYQQKPGKAPKLLIYKASSLESGVPSRFSGSGSETHFTLTISSLQPDDVATYYCQEYTSYGRTFGQGTKVEIK
As for B1, in assay [1], the off-rate (koff) worked out at 0.024 s⁻¹. In assay [2], this molecule came in with a Kd of 6.26 µM.
